From paper PMC9214244, “Multivalent Interaction of Beta-Catenin With its Intrinsically Disordered Binding Partner Adenomatous Polyposis Coli” (Frontiers in Molecular Biosciences, 2022)
Each block holds one molecule with its values, some of them ahead of it. Where no end group is shown, it is not given here.

Tests used:
[1] = target: armadillo (ARM) repeat domain of human β-catenin (residues 134–671) (human) (UniProt P35222); experiment: other fluorescence titration; competition: 20 nM Alexa-488-APCbc and 200 nM β-catenin incubated 30 min, then unlabelled APCbc variants titrated; PBS, 1 mM DTT; 25°C
[2] = target: T1, armadillo (ARM) repeat domain of human β-catenin (residues 134–671) (human, UniProt P35222 134-671); experiment: fluorescence polarisation; fluorescence anisotropy; β-catenin titrated into 10 nM fluorescein-labelled APC construct; PBS, 1 mM DTT; 15°C; adjusted anisotropy fitted to a Hill equation; conditions: both partners purified
T1 construct: two residues left at the N-terminus after thrombin cleavage of GST; β-catenin, human, armadillo repeat domain, residues 134-671; plasmid a gift from W. I. Weis; source: E. coli C41, purified (glutathione-Sepharose, thrombin cleavage on the resin, Mono-Q); not shown: GST, N-terminal, cleaved
T1 sequence: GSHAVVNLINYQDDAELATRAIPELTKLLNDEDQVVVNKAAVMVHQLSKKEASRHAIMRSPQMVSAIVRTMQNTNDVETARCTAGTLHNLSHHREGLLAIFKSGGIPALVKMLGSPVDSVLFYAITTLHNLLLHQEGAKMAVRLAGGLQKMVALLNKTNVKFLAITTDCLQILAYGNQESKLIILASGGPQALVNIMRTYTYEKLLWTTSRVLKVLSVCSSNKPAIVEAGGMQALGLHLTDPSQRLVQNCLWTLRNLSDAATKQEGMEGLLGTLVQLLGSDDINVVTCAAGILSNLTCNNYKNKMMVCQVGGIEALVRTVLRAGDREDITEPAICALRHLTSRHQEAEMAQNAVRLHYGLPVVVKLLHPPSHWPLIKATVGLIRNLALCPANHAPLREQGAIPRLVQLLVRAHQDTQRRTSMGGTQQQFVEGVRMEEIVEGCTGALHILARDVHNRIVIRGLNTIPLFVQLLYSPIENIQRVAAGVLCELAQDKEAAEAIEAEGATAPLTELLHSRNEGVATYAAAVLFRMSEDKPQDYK

[3] = target: T1, armadillo (ARM) repeat domain of human …; experiment: as above; conditions: both partners purified; remark: listed apart in the source
[4] = target: T1, armadillo (ARM) repeat domain of human …; experiment: stopped-flow fluorescence; association: 25 nM fluorescein-labelled APC mixed 1:1 by volume with 250-2,000 nM β-catenin (pseudo first-order); dissociation: pre-formed 1:1 complex (200 nM) mixed with 10 times molar excess of the same APC construct; PBS, 1 mM DTT; 15°C; conditions: both partners purified

fold increase in affinity (IC50) against APCbc [1]: 5 fold
Molecule: APCbc S1505E (S2), unlabelled (from UniProt P25054 1483-1533) (domain or fragment)

fold increase in affinity (IC50) against APCbc [1]: 30 fold
Molecule: APCbc S1507E (S3), unlabelled (from UniProt P25054 1483-1533) (domain or fragment)

Kd [2]: > 5 µM
B1: APC R3 construct with E1494T (domain or fragment)
chain: SGPKQAAVNAAVQRVQVLPDADTLLHFATTSTPDGFSC(fluorescein‑maleimide)SSSLSALSLDEPFIQKDVELRIMPPVQEND
modifications: not fully specified

Kd [3]: 2.05 µM
B2: APCabc D1486S, fluorescein-labelled at Cys 1501 (domain or fragment)
chain: SGPKQAAVNAAVQRVQVLPDASTLLHFATESTPDGFSC(fluorescein‑maleimide)SSSLSALSLDEPFIQKDVELRIMPPVQEND

Kd [3]: 0.246 µM
B3: APCb, lysine-binding domain b of APC R3, fluorescein-labelled at Cys 1501 (domain or fragment)
chain: GSPDADTLLHFATESTPDGFSC(fluorescein‑maleimide)
notes: two residues left at the N-terminus after thrombin cleavage of GST; adenomatous polyposis coli (APC), R3 region, subdomain b, residues 1483-1502; source: E. coli C41, purified (glutathione-Sepharose, thrombin cleavage on the resin, differential filtration); not shown: GST, N-terminal, cleaved

kon [4]: 1.33e+07 M⁻¹ s⁻¹ | Kd [3]: 0.0899 µM
B4: APCab, APC R3 subdomains a and b, fluorescein-labelled at Cys 1501 (domain or fragment)
chain: GSSGPKQAAVNAAVQRVQVLPDADTLLHFATESTPDGFSC(fluorescein‑maleimide)
notes: two residues left at the N-terminus after thrombin cleavage of GST; adenomatous polyposis coli (APC), R3 region, subdomains a (1465-1483) and b (1483-1502); source: E. coli C41, purified (glutathione-Sepharose, thrombin cleavage on the resin, differential filtration); not shown: GST, N-terminal, cleaved
